Measurements published in article PMC3319252.

How the values were obtained:
[1] = target: transmembrane (TM) domain of the human nicotinic acetylcholine receptor α4 subunit (human); experiment: SEC-MALS
[2] = target: transmembrane (TM) domain of the human nicotinic acetylcholine receptor β2 subunit (human); experiment: SEC-MALS

Row | Substance | stoichiometry N [1] | stoichiometry N [2]
1 | transmembrane (TM) domain of the human nicotinic acetylcholine receptor α4 subunit (domain or fragment) | 5 | 
2 | transmembrane (TM) domain of the human nicotinic acetylcholine receptor β2 subunit (domain or fragment) |  | 5
